B1: TMTRVLQGV, human chorionic gonadotropin-beta peptide 40-48 (peptide)
peptide: TMTRVLQGV
notes: also called TMT(40)
B2: VLQGVLPAL, human chorionic gonadotropin-beta peptide 44-52 (peptide)
peptide: VLQGVLPAL
notes: also called VLQ(44)
B3: GVLPALPQV, human chorionic gonadotropin-beta peptide 47-55 (peptide)
peptide: GVLPALPQV
notes: also called GVL(47)

target: T1, activated soluble HLA-A*0201; test: fluorescence polarization competition (PolyTest)
T1 construct: MHC class I molecule that receives peptide in the fluorescence polarization assay (PolyTest); also called sHLA

binding result | Binder
binds | B1
binds | B2
binds | B3

Reference: patent US20090075304A1 (published 2009)
